± gives the standard error. For part of these data: This sample holds only a part of the variants without activity.
B1: glmS ribozyme (parent)
chain: AUAAAAGCGCCAGAACUACAGAAAUGUAGUUGACGAGGAGGAGGUUUAUCGAAUUUUCGGCGGAUGCCUCCAAA

Columns and labels:
Settings in all cases: with glucosamine-6-phosphate
glucosamine-6-phosphate [1] = variants of: B1; assay: kcat; higher = faster cleavage; RNA array
Procedure, shortened: (§1)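 Sequenced MiSeq chips were the platform: E. coli RNA polymerase transcribed barcoded ribozyme variants on them in situ, and a hybridised Cy3 probe tracked these at 37 °C. After glucosamine-6-phosphate (40 μM to 10 mM) in HEPES/KCl/Mg(OAc)2 buffer was flowed in, tiles were imaged over ~14 h. Signals normalised to baseline and to non-cleaving reference variants were reduced to per-tile medians and fit to one- or two-exponential decays to obtain kobs. kcat and KM were derived through weighted Michaelis–Menten fits across concentrations.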

glucosamine-6-phosphate [2] = variants of: B1; assay: KM; higher = weaker cofactor use; RNA array
Procedure, shortened: as §1

glucosamine-6-phosphate [3] = variants of: B1; assay: self-cleavage kobs at 40 uM GlcN6P; higher = faster cleavage; RNA array
Procedure, shortened: as §1

glucosamine-6-phosphate [4] = variants of: B1; assay: self-cleavage kobs at 160 uM GlcN6P; higher = faster cleavage; RNA array
Procedure, shortened: as §1

glucosamine-6-phosphate [5] = variants of: B1; assay: self-cleavage kobs at 640 uM GlcN6P; higher = faster cleavage; RNA array
Procedure, shortened: as §1

glucosamine-6-phosphate [6] = variants of: B1; assay: self-cleavage kobs at 2500 uM GlcN6P; higher = faster cleavage; RNA array
Procedure, shortened: as §1

glucosamine-6-phosphate [7] = variants of: B1; assay: self-cleavage kobs at 10000 uM GlcN6P; higher = faster cleavage; RNA array
Procedure, shortened: as §1

Row | Variant | kcat (glucosamine-6-phosphate [1]) [s⁻¹] | KM (glucosamine-6-phosphate [2]) [µM] | self-cleavage kobs at 40 uM GlcN6P (glucosamine-6-phosphate [3]) [s⁻¹] | self-cleavage kobs at 160 uM GlcN6P (glucosamine-6-phosphate [4]) [s⁻¹] | self-cleavage kobs at 640 uM GlcN6P (glucosamine-6-phosphate [5]) [s⁻¹] | self-cleavage kobs at 2500 uM GlcN6P (glucosamine-6-phosphate [6]) [s⁻¹] | self-cleavage kobs at 10000 uM GlcN6P (glucosamine-6-phosphate [7]) [s⁻¹]
1 | A14U U45A | 0.0137 ± 0.0043 | 1480 ± 610 | 0.000446 ± 7.7e-05 | 0.00102 ± 0.00029 | 0.00404 ± 0.00082 | 0.00683 ± 0.0026 | 0.0148 ± 0.004
2 | G29A A48U | 0.000327 ± 8.3e-05 | – | – | – | – | – | 2.73e-05 ± 1.1e-05
3 | A14G U54C | 0.151 ± 0.0085 | 4420 ± 270 | 0.00134 ± 0.00025 | 0.00536 ± 0.00096 | 0.0185 ± 0.0064 | – | 0.105 ± 0.042
4 | C16A A53G | 0.00159 ± 0.00057 | – | 7.66e-05 ± 1.7e-05 | 0.000134 ± 3.8e-05 | 0.000374 ± 9.2e-05 | 0.000777 ± 0.00017 | 0.0017 ± 0.00029
5 | G29A U46C | 0.00025 ± 1.1e-05 | 1880 ± 160 | – | – | 6.39e-05 ± 2e-05 | 0.000139 ± 3.1e-05 | 0.000216 ± 6.1e-05
6 | A15C U65C | 7.01e-05 ± 1.5e-05 | – | – | – | – | 9.83e-05 ± 2.2e-05 | 6.14e-05 ± 1e-05
7 | A15C G40A | 0.000642 ± 0.00018 | 1860 ± 840 | 2.42e-05 ± 9.8e-06 | 8.81e-05 ± 2.4e-05 | 0.000149 ± 2e-05 | 0.000365 ± 7.3e-05 | 0.000584 ± 0.00012
8 | A15C G40C | 0.000353 ± 6.6e-05 | 1230 ± 420 | – | 5.62e-05 ± 7.5e-06 | 0.000109 ± 9.3e-06 | 0.000234 ± 2.4e-05 | 0.000343 ± 3.9e-05
9 | A14U C50U C58U G60U | < 1e-05 | – | < 1e-05 | – | < 1e-05 | – | –
10 | C16U G29A | 0.0165 ± 0.0058 | – | 0.00117 ± 0.00016 | 0.00189 ± 0.00052 | 0.0124 ± 0.0019 | 0.0121 ± 0.0031 | 0.0147 ± 0.0029
11 | A15U G66U | 0.000139 ± 1.2e-05 | 717 ± 180 | – | – | 6.31e-05 ± 9.8e-06 | 0.000153 ± 4.4e-05 | 0.000127 ± 1.5e-05
12 | A14G U47C | 0.00925 ± 0.0028 | 1160 ± 520 | 0.000316 ± 5.1e-05 | 0.00182 ± 0.00041 | 0.00236 ± 0.00055 | 0.0109 ± 0.0027 | 0.00833 ± 0.0014
13 | A14G U49G | 0.00278 ± 0.00095 | – | 7.8e-05 ± 1.6e-05 | – | 0.000937 ± 0.00022 | 0.00109 ± 0.0003 | 0.00302 ± 0.00044
14 | G29U A39C | 0.00147 ± 0.00028 | 2170 ± 670 | 2.91e-05 ± 9.8e-06 | 8.26e-05 ± 1.4e-05 | 0.000457 ± 5.8e-05 | 0.000781 ± 0.0001 | 0.00118 ± 0.00014
15 | A15U U49C | < 1e-05 | – | < 1e-05 | – | < 1e-05 | – | < 1e-05
16 | C16A C58A | 0.000107 ± 7.2e-06 | 1510 ± 430 | – | – | – | 7.24e-05 ± 1.4e-05 | 9.21e-05 ± 1.1e-05
17 | A14U U57A | 6.85e-05 ± 3.9e-06 | 2120 ± 440 | – | – | – | 3.51e-05 ± 1e-05 | 5.69e-05 ± 7.6e-06
18 | C16G U55G | 0.0033 ± 0.0015 | – | 0.000147 ± 2.3e-05 | 0.000227 ± 5.1e-05 | 0.000789 ± 0.00012 | 0.00148 ± 0.00031 | 0.00368 ± 0.00057
19 | C16A U45G | 0.000271 ± 2.9e-06 | 2200 ± 54 | – | – | 6.15e-05 ± 1.2e-05 | 0.000144 ± 3.4e-05 | 0.000222 ± 2.7e-05
20 | A14U C71U | 0.00742 ± 0.0032 | – | 0.000206 ± 3.1e-05 | 0.000492 ± 8.1e-05 | 0.00138 ± 0.00019 | 0.00252 ± 0.00058 | 0.00786 ± 0.00099
21 | A15U A48U | 0.000133 ± 4.2e-05 | – | – | < 1e-05 | – | – | 4.87e-05 ± 9.2e-06
22 | A14U U56A | 0.00382 ± 0.0017 | – | 0.000146 ± 3.2e-05 | 0.00029 ± 4.9e-05 | 0.000692 ± 0.00012 | 0.00186 ± 0.00034 | 0.00407 ± 0.00084
23 | C16G U45C | 0.0003 ± 7.1e-05 | – | – | – | 7.2e-05 ± 2.1e-05 | 0.000367 ± 9.7e-05 | 0.000243 ± 3.7e-05
24 | A14G U46G | 0.0115 ± 0.0033 | 997 ± 360 | 0.000421 ± 7.1e-05 | 0.00247 ± 0.001 | 0.00524 ± 0.0017 | 0.0199 ± 0.0079 | 0.00927 ± 0.0027
25 | A14G U46C | 0.0067 ± 0.0025 | – | 0.000504 ± 0.00011 | – | 0.00207 ± 0.00084 | 0.00744 ± 0.0013 | 0.00545 ± 0.002
26 | C16A U69A | 3.39e-05 ± 9e-06 | – | – | – | – | 4.42e-05 ± 1.3e-05 | –
27 | C16A U69C | 0.00012 ± 3.2e-05 | – | – | – | 9.93e-05 ± 2.2e-05 | 7.87e-05 ± 2.2e-05 | 0.000168 ± 4e-05
28 | A15C U54A | 0.00654 ± 0.0017 | 1930 ± 730 | 0.000164 ± 2.4e-05 | 0.000559 ± 0.00011 | 0.0012 ± 0.00025 | 0.00329 ± 0.00066 | 0.00638 ± 0.00097
29 | A15C C68U | 0.00105 ± 0.00025 | 2390 ± 860 | – | 6.98e-05 ± 8.8e-06 | 0.000191 ± 2.7e-05 | 0.000847 ± 0.00011 | 0.000796 ± 8.8e-05
30 | A15U G32U | 0.00104 ± 0.0003 | 6790 ± 2800 | – | – | 0.000103 ± 1.2e-05 | 0.000266 ± 2.9e-05 | 0.000628 ± 6.4e-05

— the supplement of paper PMC7125110
